Results published in PMC4587843, “Vascular Smooth Muscle Cells Stimulate Platelets and Facilitate Thrombus Formation through Platelet CLEC-2: Implications in Atherothrombosis” (PLoS ONE, 2015).

B1: GST-tagged S100A13 recombinant protein (natural protein, UniProt Q99584 1-98, looked up)
chain: MAAEPLTELEESIETVVTTFFTFARQEGRKDSLSVNEFKELVTQQLPHLLKDVGSLDEKMKSLDVNQDSELKFNEYWRLIGELAKEIRKKKDLKIRKK
notes: S100A13; also called S100A13-GST; recombinant S100A13-GST; source: bought: CycLex Co., Ltd. (Japan)

Legend:
[1] = biological target: native CLEC-2 on the surface of murine platelets (mouse (endogenous in platelets)) (UniProt Q9JL99)
Chain of native CLEC-2 on the surface of murine platelets (mouse (endogenous in platelets)) (Q9JL99 whole entry, the tested form may be a part): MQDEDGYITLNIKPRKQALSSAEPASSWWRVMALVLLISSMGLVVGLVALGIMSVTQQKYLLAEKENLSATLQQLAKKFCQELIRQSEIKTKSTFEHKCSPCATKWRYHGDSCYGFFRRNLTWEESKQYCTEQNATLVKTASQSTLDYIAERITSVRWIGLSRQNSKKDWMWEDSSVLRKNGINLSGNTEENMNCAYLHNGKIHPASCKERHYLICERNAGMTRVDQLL

[2] = biological target: T1, recombinant extracellular domain of human CLEC-2 expressed as a dimeric rabbit immunoglobulin Fc domain … (human, UniProt Q9P126 55-229); test: SPR; hCLEC-2-rFc2 and control rFc2 amine-coupled to a CM5 chip, Biacore X; S100A13 in modified Tyrode's buffer with 1 mM CaCl2 perfused at 20 uL/min, 25 C; control surface subtracted; Kd by BIAevaluation; details: both partners purified
T1 construct: CLEC-2, human, extracellular domain; also called hCLEC-2-rFc2; human CLEC-2-rabbit Fc2; source: recombinant, generated as described previously [2]
T1 sequence (Q9P126 55-229): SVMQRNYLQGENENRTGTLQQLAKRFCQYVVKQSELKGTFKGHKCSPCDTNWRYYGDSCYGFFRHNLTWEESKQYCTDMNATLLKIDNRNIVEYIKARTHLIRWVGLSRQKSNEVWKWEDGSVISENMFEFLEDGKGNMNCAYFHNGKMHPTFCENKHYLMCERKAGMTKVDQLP

| Molecule | release of 5-HT or PDGF from washed murine WT platelets, percent of the total stored, maximum concentration of rhodocytin [1] [%] | Kd [2] [nM] |
| --- | --- | --- |
| rhodocytin (complex) | 60 | – |
| B1 | – | 137 |
